Reference: the RNAGym collection of RNA variant scans (doi:10.1073/pnas.2313332121)
Fewer inactive variants are shown than the library holds.

B1: TPR 5TU (parent)
chain: GGAUCUUCUCGAUCUAACAAAAAAGACAAAUCUGCCACAAAGCUUGAGAGCAUCUUCGGAUGCAGAGGCGGCAGCCUUCGGUGGCGCGAUAGCGCCAACGUUCUCAACUAUGACACGCAAAACGCGUGCUCCGUUGAAUGGAGUUUAUCAUG

Variants of: B1
Assay: polymerase ribozyme fitness, log enrichment relative to wild type (log ratio); higher = more active; in vitro selection for triplet polymerase activity
Summary of the method: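 The heterodimeric triplet polymerase ribozyme's subunits were each mutagenized into PCR-built libraries and transcribed. Every library was selected once, in triplicate, by annealing with a biotinylated primer, the partner subunit and triplets, incubating frozen at −7 °C, gel-excising extended constructs, capturing on streptavidin beads and running RT-PCR. Input and output libraries were Illumina-sequenced, with genotypes kept only at ≥10 input reads and ≥1 read per output. Fitness, from inverse-variance-weighted replicate averages, is the base-2 logarithm of genotype enrichment over wild-type enrichment.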

Variant	polymerase ribozyme fitness (log ratio)
GGAUCUUCUCGAUCUAACAAAAAAGACAAAUCUGCCAUAAAGCUUGAGAGCAUCUUGGGAUGCAGAGGCGGCAGCCUUCGGUGGCGCGUUAGCGCCAACCUUCUCAACUAUGACACGCAAAACGCGUGCUCCGUUGAAUGGAGUUUAUCAUG [C38U C57G A89U G100C]	≤ -4.2
GGAUCUUCUCGAUCUAACAAAAAAGACAAAUCUGCCACAAAGCUUAAGAGCAACUUCGGAUGCAGAGGCGGCAGCCAUCAGUGGAGCGAUAGCGCCAUCGUCCUCAACUAUGACACGCAAAACGCGUGCUCGGUUGAGUGGAGUUUAUCAUG [G46A U53A U77A G80A C85A A98U U102C C132G A138G]	≤ -4.2
GGAUCUUCUCGAUCUAACAAAAAAGACAAAUCUGCCACAAAGCUUGAGAGCAUCUUCGGAUGCAGAGGCGGCAGCGUUCGGUGGCGCGAUAUCGCCAACGUUCUCAACUAUGACACGCAAGACGCGUGCUCCGUUGAAUGGAUUUUAUCAUG [C76G G92U A121G G143U]	≤ -4.2
GGAUCUUCUCGAGCUAACAAAAAAGACAAAUCUGCCACAAAGCUUGAGAGCAACUUCGGAUGCAGCGGCGGCAGCCUUCGGUUGCGCGAUAGCGCCAACGUUCUCAACUAUGACACGCAAAACGCGUGCUCCGUUGAAUGGAGUUUAUAAUG [U13G U53A A66C G83U C149A]	≤ -4.2
GGAUCUUCUCGAUCUAACAAAAAAGACAAAUCUGCCACAAAGCUUGAGAGCAUCUUCGGAUGCAGAGGCGGCAGCCUUCGGUGGCGCGAUAGCGCUAACGUUCUCAACUAUGACACGCAAAAUGCGUGCUCCGUUGAAUGGAGUUUAUCAUG [C96U C123U]	-0.655
GGAUCUUCUCGAUCUAACAAAAAAGACAAAUCUGCCACAAAGCUUGAGAGCAUCUUCGGAUGCAGAGGCGGCAGCCUUAAAUGGCGCUAUAGCGCCAACGUUCUCAACUAUGACACGCAAAACGCGUGCUCCGUUGAAUGGAGUUUAUCAUG [C79A G80A G81A G88U]	≤ -4.2
GGAUAUUCUCGAUCUAACAAAAAAGACAAAUCUGCCACAAAGCUUGAGAGCAUUAUCGGAUGCAGAGGCGGCAGCCUUCGGUGGCGCGAUAGCGGAAACGUUCUCAACUAUGACACGCAAAACGCGUGCUCCGUUGAAUGGAGUUUAUCAUG [C5A C54U U55A C95G C96A]	-4.05
GGAUCUCCUCGAUCUAACAAAAAAGACAAAUCUGCCACAAAGCUUGAGAGCAUCUUCGGAUGCAGAGGCGGCAGCCUUCGGUGGCUCGAUAGCGCCAACGUUCUCAACUAUGACACGCAAAACGCGUGCUCCGUUGAAUGGAGUUUAUCAUG [U7C G86U]	-3.7
GGAUCUUCUCGAUCUAACAAAAAAGACAAAUCUGCCACAAAGCUUGCGACCAUCUUCGGAUGCAGAGGCGGCAGCCUUCGGUGGCGCGAUAGCGCCAACGUUCUCAACUAUGACACGCAAAACGCGUGCUCCGUUGAAUGGAGUUUAUCAUG [A47C G50C]	-4.1
GGAUCUUCUCGAUCUAACAAAACAGACAAAUCUGCCACAACGCUUGAGAGCAUCUUCGGAUGCAGAGGCGGCAGACUUCGGUGACGCGAUAGCGCCAACGUUCUCAACUAUGACUCGCAAAACGCGUGCUCCGUUGAAUGGAGUUUAUCAUA [A23C A41C C75A G84A A115U G152A]	≤ -4.2
GGAUCUUCUCGAUCUAACAAAAAAGACUAAUCUGCCACAACGCUUGAGAGCAUCUUCGGAUGCAGAGGCGGCAGCCUUCGGUGGCGCCAUAGCGCCAACGUUCUCAACUAUGACACGCAAAACGCGUGCUCCGUUGAAUGGAGUUUAUCAUG [A28U A41C G88C]	≤ -4.2
GGAUCUUCUAGAUCUAACAAAAAAGACAAAUGUGCCACAAAGCGUGAGAGCAUCUUUGGAUGCAGAGGCGGCAGCCUUCGGGAGCGCGAUAGCGCCAACGUUCUCAACUAUGACACGCAAAACGCGUGCUCCGUUGAAUGGAGUUUAUCAUG [C10A C32G U44G C57U U82G G83A]	≤ -4.2
GGAUCUUCUCGAUCUAACAAAAAAGACAAAUCUGCCACAAAGCUUGAGAGCAUCUUCGGAUGCAGAGGCGGCAGCCUUCGGUGGCGCGAUAGCGCCAACCUUCUCAACUAUGACACGCAAAACGCGUGCUCCGUUUAAUGGAGUUGAUCAUG [G100C G136U U146G]	≤ -4.2
GGAUCUUCUCGGUCUAACAAAAAAGACAAAUCUGCCACAAAGCUGGAGUGCAUCUUCGGGGGCAGAGGCGGCAGCCUUCGGUGGCGCGAUAGCGCCAACGUUCUCAUCUAUGACACGCAAAACGCGGGCUCCGUUGAAUGGAGUUUAUCAUG [A12G U45G A49U A60G U61G A107U U127G]	≤ -4.2
GGAACUUCUCGAUCUACCAAAAAAGACAAAUCUGCCACAAAGCUUGAGAGCAUCUUCGCAUGCAGAGGCGGCAGCCUUCGGUGGCGCGAUAGCGCCAACGUUCUCAACUAUGACACGCGAAACGCGUGCUCCGUUGAAUGGAGUUUAUCAUG [U4A A17C G59C A119G]	-0.404
GGAUCUUCUCGAUCUAACAAAAAAGACAAAUCUGCCACAAAGUUUGAGAGCUUCUUCGGAUGCAGAGGCGGCAGCCUUCGGUGGGGCGAUAGCGCCAACGUUCUCAACUAUGACACGCAAAACGCGUGCUCCUUUGAAUGGAGUUUAUCAUG [C43U A52U C85G G133U]	≤ -4.2
GGAUCUUCUCGAUCUAACAAAAAAGACAAAUCUGCCACAACGCUUGAGAGCAUCUUCGGAUGCAGUGGCGGCAGCCUUCGGUGGCGAGAUUGCGCCAACGUUGUCAACUAUGACACGCAAAACGCGUGCUCCGUUGAAUGGUGUCUAUCAUG [A41C A66U C87A A91U C103G A142U U145C]	≤ -4.2
GGAUCUUCUCGAUCUAACAAAAAAGACAAAACUGCCACAAGGCUUGAGAGCAUCUUCGGAUGCAGAGGCGGCAGCUUUCGGUGGCGCGAUAGAGCCAACGUUCUCAACUAUGACACGCAAAACGCGUGCUCCGUUAAAUAGAGUUUAUCAUG [U31A A41G C76U C93A G136A G140A]	-3.72
GGAUCUUCUCGAACUAACAAAAAAUACAAAUCUGCCACAAAGCUUGAGAGCAUCUUCGGAUGCAGAGGCGGCAGCCUUCGGUGGGGCGAUAGCGCCAACGUUCUCAACUAUGACACGCAAAACGCGUGCUCCGUUGAAUGGAGUUUAUCAUG [U13A G25U C85G]	-3.79

Variant	polymerase ribozyme fitness (log ratio)
GGAUCUUCUUGAUCUAACAAAAAAGACAAAUCUGCCACAAAGCUUGAGAGCAUCUUCGGAUGCAGAGGCGGCAGCCUUCGGUGGCGCGAUAGCGCCAACGUUCUCAACGAUGACACGCAAAACGCGUGCUCCGUUGAAUGGCGUUUAUAAUG [C10U U109G A142C C149A]	≤ -4.2
GGAUCUUCUCGAUCUAACAAAAGAGACAAAUCUGCCACAUAGCUUGAGAGCAUCUUCGGAUGCAGCGGCGGCAGCCUUCGGUGGCGCGAUAGCGCCAACGUUCUCAACGAGGACACGCAAAACGCGUGCUCCGUUGAAUGGAGUUUAUUAUG [A23G A40U A66C U109G U111G C149U]	≤ -4.2
GGAUCUUCUCGAUCUAACAAAAAAGACAAAUCUGCCACAAAGCUUGAGAGCAUCUUCGGAUGCAGAGGCGGCAGCCUUCGGUGGCGCGAUAGCGCCAACGUUCUCAACUAUGACACGCAAAACGCGUGCUCCGCUGAAUGGCGUUUAUCAUG [U134C A142C]	-0.0581
GGAUCUUCUCGAUCUAACAAAAAAGACAAAUCUGCCACAAAGCUUGAGAGCAUCUUCGGAUGCAGGGGCGGCAGCCUUCGGUGGCGCGAUAGUGCCAACGUUCUCAUCUAUGACACGCAAAACGCGUGCUCCGUUGAUAGGAGUUUAUCAUG [A66G C93U A107U A138U U139A]	≤ -4.2
GGAUCUUCUCGAUCUAACAAAAAAGACAAAUCUGCCACAAAGCUUGAGAGCAUCUUCGGAUGCAGAGGCGCCAGCCUUCGGUGGCGCGAUAGCGCCAACGUUCUCAACUAUGACACGCGAAACGCGUGCUCCGUUGAAUGGAGUUUAUCAUG [G71C A119G]	-3.01
GGAUCUUCUCGAUCUAACAAAAAAGACAAAUCUGCCACAAAGCUUCAGAGCAUCUUCGGAUGCAGAGGCGGCAGCCUUCGGUGGCGCGAUAGCGCAAACGUUCUCAACUAUGACACGCAAAAGGCGUGCUCCGUUGAAUGGAGUUUAUCAUG [G46C C96A C123G]	-1.48
GGUUCUUCUCGAUCUAACAAAAAAGACAAAUCUGCCACAAAGCUUGAGAGCGUCUUCGGAUGCAGAGGCGGCAGCCUUCGGUGGCGCGAUAGCGCGAACGUUCUCAACUAUGACACGCAAAACGCGUGCUUCGUUGAAUGGAGUUUAUCAUG [A3U A52G C96G C131U]	-0.0465
GGAUCUUCUCGAUCUAACAAAAAAGACAACUCUGCCACAAAGCUUGACAGCAUCUUCGGAUGCAGAAGCGGCAGCCUUCGGUGGCGCGAUUGCGCCAACUUUCUCAACUAUGACACGCAAAACGCGUGCUCCGUUGAAUGGAGUUUAUCAUG [A30C G48C G67A A91U G100U]	≤ -4.2
GGAUCUUCUCGAUCUAACAAAAAAGACAAAUCUGCCACAAAGCUUGAGGACAACUUCGGAUGCAGAGGCGGCAGCCGUUGGUGGCGCGAUAUCGCCAACGUUCUCAACGAUGACACGCAAAUCGCGUGCUCCGCCGAAUGGAGUUUAUAUUG [A49G G50A U53A U77G C79U G92U U109G A122U U134C U135C C149A A150U]	≤ -4.2
GGAUCUUCUCGCUCUGACAAAAAAGACAAAUCUGCCACAAAGCUUGAGAGCAUCAUCGGAUGCAGAGGCGGCAGCCUUCGGUGGCGCGAUAGCGCCAACGUUCUCAACUAUGACACGCAAAACGCGUGCUCCGUUGAAUGGAGUUUAUCAUG [A12C A16G U55A]	-2.45
GGUUCUUCUCGAUCUAACAAAAAAGACAAAUCUGCCACAAAGCUUGAGAGCAUCUUAGGAUGCAGAGGCGGCAGCCUUCGGUGGCGCGAUAGCGCCAACGUUCUCAACUAUGACACGCAAAACGCGUGCUCCGUUGAAUGGAGUUUAUCAUG [A3U C57A]	-0.997
GGUUCUUCUCGAUCUAACAAAAAAGACAAAUCUGCUACAAAGCUUGAGAGCAUCUUCGGAUGCAGAGGCGGCAGCCUUCGGUGGCGCGAUAGCGCCAACGUUCUCAACUAUGACACGCAAAACGCGUGCUCCGUUGAAUGGAGUUUAUCAUG [A3U C36U]	-2.21
GGAUCUUCUCGAUCUAACAAAAAAGACAAAUCUGCCACAAAGCUUGAGAGCAACUUCGCAUGCAGAGGCGGCAGCCUUCGGUGGUGCGAUAGCGCCAACGUUCUCAACUAUGACACGCAAAACGCGUGCUCCGUAGAAUGGAGUUUAUCAUG [U53A G59C C85U U135A]	-0.238
GGAUCUUCUCGAUCUAACCAAAAAGACAAAUCUGCCACAAAGCUUGAGAGCAUCUUCGGAUGCAGAGGCGGCAGCCUUCGGUGGCGCGAUAGUGCCAACGUUCUCAACUAUGACACGCAAAACGCGUGCUCCGUUGAAUGGAGUUUAUCAUG [A19C C93U]	0.111
GGAUCUUCUCGAUCUAACAAAAAAGACAAAUCUGCCACAAAGCUUGAAAGCAUCUUCGAAUGCAGAGGCGGCAGCCUUCGGUGGCACGAUAGCGCCAACGUUCGCAACUUUGACACGCAAAACGCGUGCUCCGUUGAAUGGAGUUUAUCAUG [G48A G59A G86A U104G A110U]	≤ -4.2
GGAUCUUCUCGAUCUAACAAAAAAGACAAAUCUGCCACAAAGCUUGAGAGCAUCUUCGGAUGCUGAGGCGGCAGCCUUCGGUGGCGCGAUAACGACAACGCUCUUAACUAUGACACGCAAAAACCGUGCUCCGUUGAAUGGAGUGUAGCAUG [A64U G92A C95A U101C C105U C123A G124C U145G U148G]	≤ -4.2
GGAUCUUCUCGAUCUAACAAAAAAGACAAAUCUGCCACAAAGCUUGAGAGCAUUUUUGGAUGCAGAGGCGGCAGCCUUCGGUCGCGCGAUAGCGCCAACGUUCUCAACUAUGACACGCAAAACGCGUGCUCCGUUGAAUGGAGUUUAUCAUG [C54U C57U G83C]	-1.34
GGAUCUUCUCGAUCUAACCAAAAAGACAAACCUGCCACAAAGCUUGAGAGCAUCUUCGGAUGCAGAGGCGGCAGCCUUCGGUGGCGCGAUAGCGCCAACGUUCUCAACUAUGACACGCAAAACGCGUGCUCCGUUGAAUGGAGUUUAUCAUG [A19C U31C]	1.56
GGAUCUUCUCGAUCUAACAAAAAAGACAAAUCUGCCACAAAGCUAGAGAGCCUCUUCGGAUGCAGAGGCGGCAGCCUUCGGUGGCGCGAUAGCGCCAACGUUCUCAACUAUGACACGCAAAACGCGUGCUCCGUUGAAUGGAGUUUAUCAUG [U45A A52C]	≤ -4.2
